Source: patent US12383631B2, “Immune antigen specific IL-18 immunocytokines and uses thereof” (Bright Peak Therapeutics AG, priority 2022, dated 2025)

Key:
[1] = biological target: T1, human Fc gamma receptor IIa (FcγRIIa/CD32a) (Homo sapiens, UniProt P12318); assay: Human FcγR binding ELISA, FcγRIIa (Example 8); conditions: antibody coated on plate, soluble receptor titrated, read-out: FcγRIIa (CD32a) binding affinity
T1 sequence (P12318 36-218): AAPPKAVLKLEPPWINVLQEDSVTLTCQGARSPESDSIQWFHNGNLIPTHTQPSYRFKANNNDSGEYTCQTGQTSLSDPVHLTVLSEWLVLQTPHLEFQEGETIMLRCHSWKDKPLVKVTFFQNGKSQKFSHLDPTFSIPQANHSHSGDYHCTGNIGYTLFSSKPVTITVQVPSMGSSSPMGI
Protocol: (§1) The interaction of the unmodified and of conjugated antibodies with human Fc gamma receptors I (FcγRI/CD64), with human Fc gamma receptors IIa (FcγRIIa/CD32a), with inhibitory human Fc gamma receptors IIb (FcγRIIb/CD32b), and with human Fc gamma receptors III FcγRIIIa/CD16 were measured by ELISA.
(§2) Briefly, Corning high-binding half-area plates (Fisher Scientific, Reinach, Switzerland) were coated overnight at 4° C. with 25 μl of unmodified and of conjugated anti-PD1 antibodies at 2.5 μg/ml in PBS. Plates were then washed four times with 100 μl of PBS-0.02% Tween20. Plates surfaces were blocked with 25 μl of PBS-0.02% Tween20-1% BSA at 37° C. during 1 h. Plates were then washed four times with 100 μl of PBS-0.02% Tween20. Then twenty-five microliters of either recombinant Human Fc gamma RI/CD64 Protein (R&D systems, 1257-FC-050, CF), recombinant Human Fc gamma RIIA/CD32a (H167) Protein (R&D systems, 9595-CD-050, CF), recombinant Human Fc gamma RIIB/CD32b Avi-tag Protein (R&D systems, AVI1875-050, CF), or recombinant Human Fc gamma RIIIA/CD16a Protein (R&D systems, 4325-FC-050; CF) were added in five-fold serial dilutions ranging from 1000 nM to 0.001 nM into PBS-0.02% Tween20-0.1% BSA and incubated at 37° C. during 2 h. Plates were then washed four times with 100 μl of PBS-0.02% Tween20. Twenty-five microliters of a 1/500 HRP-anti-His antibody in PBS—0.02% Tween20-0.1% BSA (R&D systems, anti-HIS—HRP Ab, #MAB050H) were added to each well and plates were incubated at Room Temperature during 1 h. Plates were then washed four times with 100 μl of PBS-0.02% Tween20. Fifty microliters of TMB substrate reagent (#CL07, Merck, Buchs, Switzerland) were added to each well and incubated at 37° C. during 5 min. After 5 min at 37° C., Horseradish peroxidase reaction was stopped by adding 50 μl/well of 0.5M H2SO4 stop solution. ELISA signal was then measured at 450 nm on an EnSpire plate reader from Perkin Elmer (Schwerzenbach, Switzerland).

[2] = biological target: human Fc gamma receptor III FcγRIIIa/CD16; assay: Human FcγR binding ELISA, FcγRIIIa (Example 8); conditions: antibody coated on plate, soluble receptor titrated, read-out: FcγRIIIa (CD16) binding affinity
Protocol: as §1, §2

[3] = biological target: T2, human Fc gamma receptor IIb (FcγRIIb/CD32b) (Homo sapiens, UniProt P31994); assay: Human FcγR binding ELISA, FcγRIIb (Example 8); conditions: antibody coated on plate, soluble receptor titrated, read-out: FcγRIIb (CD32b) binding affinity
T2 sequence (P31994 43-310): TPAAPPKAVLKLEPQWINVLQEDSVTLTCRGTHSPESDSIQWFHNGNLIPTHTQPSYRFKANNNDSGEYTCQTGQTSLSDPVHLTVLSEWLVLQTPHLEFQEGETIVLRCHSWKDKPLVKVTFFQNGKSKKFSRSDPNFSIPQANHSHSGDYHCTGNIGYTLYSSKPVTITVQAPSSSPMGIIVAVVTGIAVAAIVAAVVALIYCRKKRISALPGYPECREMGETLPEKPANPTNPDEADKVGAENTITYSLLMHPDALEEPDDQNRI
Protocol: as §1, §2

[4] = biological target: PD-1/PD-L1 interaction (Homo sapiens, UniProt Q15116+Q9NZQ7); assay: PD-1/PD-L1 Blockade Bioassay, Jurkat NFAT-RE luciferase / PD-L1 aAPC CHO-K1 (Example 7); format: cell-based; conditions: table titled activity in the PD-1/PD-L1 Blockade Cellular Assay; NFAT-RE luminescence, 6 h; read-out: KD FcRn
Protocol: For immunocytokine compositions which comprise PD-1 or PD-L1 antibodies or antigen binding fragments, the experiment outlined below is performed to assess the ability of the immunocytokines to interfere with the PD-1/PD-L1 pathway. The assay is the PD-1/PD-L1 Blockade Bioassay from Promega (Cat #J1250, Madison, WI, USA). PD-1/PD-L1 Blockade Bioassay is a bioluminescent cell-based assay based on the co-culture of effector cells with target cells mimicking an immunological synapse. Jurkat T cells expressing human PD-1 and a luciferase reporter driven by a NFAT response element (NFAT-RE) are activated by CHO-K1 cells expressing human PD-L1 and an engineered cell surface protein designed to activate Jurkat cells cognate TCRs. Concurrent interaction PD-1/PD-L1 inhibits TCR signaling and represses NFAT-RE-mediated luminescence. […]
Briefly, PD-L1 aAPC/CHO-K1 Target cells were plated in white tissue culture 96-wells plates and cultured overnight at 37° C./5% CO2. Test molecules were measured in four-fold serial dilutions starting at 1 μM down to 0.002 nM and pre-incubated on target cells for 10 min before the addition of freshly thawed PD-1 Jurkat effector cells. After 6 h at 37° C./5% CO2, activity NFAT-RE luminescent reporter was evaluated by the addition of Bio-Glo reagent and measured on an ENSPTRE® plate reader (1 sec/well) from Perkin Elmer (Schwerzenbach, Switzerland).

[5] = biological target: human neonatal Fc receptor (FcRn) (Homo sapiens, UniProt P55899); assay: Human FcRn binding AlphaLISA at pH 6 (Example 9); conditions: AlphaLISA competition
Protocol: The interaction of the unmodified and of conjugated anti-PD1 antibodies with the human neonatal Fc receptor (FcRn) at pH 6 was measured using the AlphaLISA® Human FcRn Binding Kit (AL3095C) from Perkin Elmer (Schwerzenbach, Switzerland). […] When reference IgG binds to FcRn, donor and acceptor beads come into proximity enabling the transfer of singlet oxygen that trigger a cascade of energy transfer reactions in the acceptor beads, resulting in a sharp peak of light emission at 615 nm. Addition of a free IgG antibodies into the AlphaLISA® mixture creates a competition for the binding of FcRn to the reference antibody resulting in a loss of signal.
After 90 min at 23° C. in the dark, AlphaLISA® signal was measured on an EnSpire plate reader (Excitation at 680 nm, Emission at 615 nm) from Perkin Elmer (Schwerzenbach, Switzerland).

[6] = biological target: human Fc gamma receptor I (FcγRI/CD64) (Homo sapiens, UniProt P12314); assay: Human FcγR binding ELISA, FcγRI (Example 8); conditions: antibody coated on plate, soluble receptor titrated, read-out: FcγRI/(CD64) binding affinity
Protocol: as §1, §2

Sequence of human Fc gamma receptor I (FcγRI/CD64) (P12314 16-374): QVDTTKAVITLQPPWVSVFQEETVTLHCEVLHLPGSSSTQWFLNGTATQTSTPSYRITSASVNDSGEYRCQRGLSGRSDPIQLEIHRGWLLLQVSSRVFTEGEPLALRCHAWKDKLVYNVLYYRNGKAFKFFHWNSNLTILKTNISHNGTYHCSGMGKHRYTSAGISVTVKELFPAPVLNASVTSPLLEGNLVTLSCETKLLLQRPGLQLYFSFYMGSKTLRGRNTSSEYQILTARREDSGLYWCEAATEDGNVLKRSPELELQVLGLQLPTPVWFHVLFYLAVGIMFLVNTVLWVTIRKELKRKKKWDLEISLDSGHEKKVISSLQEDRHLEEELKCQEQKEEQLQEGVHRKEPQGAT
Sequence of human Fc gamma receptor III FcγRIIIa/CD16 (P08637 17-254): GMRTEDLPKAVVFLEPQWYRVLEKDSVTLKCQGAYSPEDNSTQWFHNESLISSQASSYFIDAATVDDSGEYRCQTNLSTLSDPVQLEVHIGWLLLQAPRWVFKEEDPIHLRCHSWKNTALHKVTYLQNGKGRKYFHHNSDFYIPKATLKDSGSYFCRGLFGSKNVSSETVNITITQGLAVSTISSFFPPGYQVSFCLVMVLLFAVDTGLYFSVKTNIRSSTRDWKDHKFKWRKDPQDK
Sequence of PD-1/PD-L1 interaction (Q15116 25-288): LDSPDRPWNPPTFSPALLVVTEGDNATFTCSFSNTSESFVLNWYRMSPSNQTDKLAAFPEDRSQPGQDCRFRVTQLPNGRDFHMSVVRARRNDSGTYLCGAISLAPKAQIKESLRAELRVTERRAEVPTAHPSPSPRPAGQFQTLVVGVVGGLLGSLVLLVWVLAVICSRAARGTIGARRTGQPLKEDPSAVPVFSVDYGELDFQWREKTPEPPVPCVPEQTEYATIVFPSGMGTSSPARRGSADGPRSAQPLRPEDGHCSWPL
Sequence of PD-1/PD-L1 interaction (Q9NZQ7 19-290): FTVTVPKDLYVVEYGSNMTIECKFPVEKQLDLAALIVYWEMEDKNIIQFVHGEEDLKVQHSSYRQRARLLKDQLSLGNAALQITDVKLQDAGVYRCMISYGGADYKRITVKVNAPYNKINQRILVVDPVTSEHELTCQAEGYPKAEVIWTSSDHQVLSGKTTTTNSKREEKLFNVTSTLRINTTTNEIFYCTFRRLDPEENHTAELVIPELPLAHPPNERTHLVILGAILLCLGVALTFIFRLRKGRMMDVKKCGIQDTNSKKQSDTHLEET
Sequence of human neonatal Fc receptor (FcRn) (P55899 24-297): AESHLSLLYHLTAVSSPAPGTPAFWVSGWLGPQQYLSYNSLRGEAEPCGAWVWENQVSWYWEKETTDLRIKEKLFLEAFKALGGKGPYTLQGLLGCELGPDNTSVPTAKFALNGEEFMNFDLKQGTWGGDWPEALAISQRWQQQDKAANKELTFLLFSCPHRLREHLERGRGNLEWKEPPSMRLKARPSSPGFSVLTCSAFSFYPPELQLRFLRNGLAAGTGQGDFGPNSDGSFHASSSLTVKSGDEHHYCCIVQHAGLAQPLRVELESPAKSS
Sequence of human neonatal Fc receptor (FcRn) (P61769 21-119 partner): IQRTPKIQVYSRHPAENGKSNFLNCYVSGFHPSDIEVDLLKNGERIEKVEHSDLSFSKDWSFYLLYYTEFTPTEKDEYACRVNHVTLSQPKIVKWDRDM

| Substance | Kd [1] [nM] | Kd [2] [nM] | Kd [3] [nM] | PD-1/PD-L1 blockade potency [4] [nM] | Kd [5] [nM] | Kd [6] [nM] |
| --- | --- | --- | --- | --- | --- | --- |
| Atezolizumab/Tecentriq: anti-PD-L1 antibody, unconjugated reference antibody [reference compound] | 1370 | 356 | > 10000 | 0.664 | 6.4 | 9.17 |
| Composition B: immunocytokine: Atezolizumab/Tecentriq (anti-PD-L1) conjugated to IL-18 polypeptide SEQ ID NO: 30 | 1740 | 492 | > 10000 | – | – | 10.8 |
| LZM-009: anti-PD-1 antibody (VH SEQ ID NO: 376, VL SEQ ID NO: 377), unconjugated reference antibody [reference compound] | 1350 | 1710 | 2630 | 5.8 | 6 | 0.315 |
